We go through 72 sequences from the supplement of paper PMC10567573.

± gives the standard deviation.

The series is described as follows: protein stability index of a GFP-peptide fusion (GPS, HEK-293T) (PSI 1-6); higher = more stable.
Where [1] appears, read: treatment: DMSO, c terminus: a fixed tail appended.
Setting [2] is: treatment: MLN4924 1 uM, 8 h, c terminus: a fixed tail appended.
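Also: 24-mer peptide tiles fused after GFP, lentivirally expressed, FACS-sorted into six equal bins by GFP/DsRed ratio, decoded by Illumina sequencing, PSI is the read-weighted mean bin number.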

Regarding YNSFHKLRDRAERIASRAIDNAAD [SNX8], the protein stability index stood at 3.98 ± 0.43 under setting [1] and 4.14 ± 0.38 under setting [2].

Take TEATISIREDEVHRLGSPYGHCTA [SCNN1D]: the protein stability index reads like this: under setting [1], 3.93 ± 0.29; under setting [2], 3.88 ± 0.16.

With ECRNPQELESIRQDRDALHMEGLI [FEM1B], the protein stability index is 4.3 ± 0.16 under setting [1] and 4.31 ± 0.17 under setting [2].

As to KLVHFLLLKYRAREPVTKAEMLGS [MAGEA6], the protein stability index is 2.81 ± 0.48 under setting [1] and 2.78 ± 1.3 under setting [2].

YLGSAYHASKCEFLANLHITALLN [DUSP5]: the protein stability index is, setting by setting: under setting [1], 2.58 ± 0.69; under setting [2], 2.61 ± 0.47.

As to SLYENDCIFDKFECVWNGSDSVIM [PPP2R2B], the protein stability index is, setting by setting: under setting [1], 2.06 ± 0.71; under setting [2], 2.07 ± 0.37.

In the case of HVPEGFDPTGPAGLGRPTPGLSQG [EHMT1], the protein stability index under setting [1] was found to be 4.4 ± 0.27 and the protein stability index under setting [2] was 4.51 ± 0.11.

Turning to RVQVQVVERAQQVAVQEQEIARRE [FLOT1], the protein stability index amounted to 5 ± 0.43 under setting [1] and 4.76 ± 0.67 under setting [2].

As for VSAYVDTTADLDRKLSFSHSDHSS [SPATS1], the protein stability index is, setting by setting: under setting [1], 3.83 ± 0.1; under setting [2], 4.08 ± 0.24.

On to STPRPSITPTKKIELDRTIMPDGT [C2CD2L], for which the protein stability index runs as follows: under setting [1], 4.76 ± 0.24; under setting [2], 4.87 ± 0.17.

CICWSPFLVTMANIGINGNHSLET [PTGFR]: the protein stability index is, setting by setting: under setting [1], 2.82 ± 0.26; under setting [2], 2.84 ± 0.73.

VTDINDNAPKFQAENLDVKINENV [PCDHGA10] returned a protein stability index under setting [1] of 5.22 ± 0.1 and a protein stability index under setting [2] of 5.01 ± 0.37.

FKDYIQERSDPVEQGKPVIPAAVL [ETS2]: the protein stability index was 4.08 ± 0.2 under setting [1] and 3.97 ± 0.27 under setting [2].

Turning to DLIESDPDAWCDLSKFDLPEEPSA [MYBL2], the protein stability index is, setting by setting: under setting [1], 5.01 ± 0.35; under setting [2], 5.02 ± 0.17.

For EEKRRREEEERLRREEEERRRIEE [ACBD3], the protein stability index under setting [1] was 5.53 ± 0.29 and the protein stability index under setting [2] amounted to 5.49 ± 0.28.

Turning to MQDYVRTGTYQRAILQNHTDFKDK [CARM1], the protein stability index was 3.92 ± 0.32 under setting [1] and 4.18 ± 0.29 under setting [2].

Regarding SVHVPGPHAMTIQELVDYVNARQK [PTPN9], the protein stability index is, setting by setting: under setting [1], 3.49 ± 0.34; under setting [2], 3.47 ± 0.28.

For SFQIVLDPMLDFYSDKNAKLTKES [TENT5D], the protein stability index runs as follows: under setting [1], 2.91 ± 0.43; under setting [2], 3.09 ± 0.37.

EDDWPRDVSLPRGAFPPRGPRPVQ [CDK4] had a protein stability index under setting [1] of 4.57 ± 0.18 and a protein stability index under setting [2] of 4.6 ± 0.24.

Take PSRREPPPRRSRSRSHDRLPYQRR [CLK3]: the protein stability index worked out at 5.23 ± 0.19 under setting [1] and 5.23 ± 0.14 under setting [2].

PLKLHYQLRNVRERLAKNLVEKGV [GOLPH3]: the protein stability index worked out at 2.4 ± 0.15 under setting [1] and 2.7 ± 0.3 under setting [2].

For the sequence VDFLEPDSGTCPEVDEEGFTVRPD [FCHO1], the protein stability index stood at 5.45 ± 0.086 under setting [1] and 5.43 ± 0.1 under setting [2].

In the case of AVGYSSDSETLDLEEAEGAVGYQP [NFE2L1], the protein stability index by setting is: under setting [1], 5.24 ± 0.1; under setting [2], 5.33 ± 0.21.

Sequence QFLKELLLKPHSYGRFIRWLNKEK [SPDEF] yielded a protein stability index under setting [1] of 2.28 ± 0.43 and a protein stability index under setting [2] of 2.21 ± 0.25.

NLAAAAADIPQDQLVVMHPTPQVD [BTBD10]: the protein stability index was 5.14 ± 0.21 under setting [1] and 5.13 ± 0.21 under setting [2].

Turning to FDEPFLTRNVQSVSIIDTELKVKD [TRIP13], the protein stability index is, setting by setting: under setting [1], 4.65 ± 0.19; under setting [2], 4.49 ± 0.068.

Consider YLLDRAVDSFETQRNGLVFIYDMC [PTPN9], for which the protein stability index came to 2.36 ± 0.47 under setting [1] and 2.29 ± 0.29 under setting [2].

With AFTMAENLANCERLIEVEDMMVMG [SMTNL2], the protein stability index under setting [1] turned out to be 2.58 ± 0.35 and the protein stability index under setting [2] turned out to be 3.24 ± 0.34.

For SSEHFEKLHEIFRGLHEDLQGVPE [VTI1B], the protein stability index reads like this: under setting [1], 4.11 ± 0.32; under setting [2], 3.97 ± 0.12.

Sequence GYKEFFMKCQSYCEPPSYRPMHHE [CDC25A] had a protein stability index under setting [1] of 2.49 ± 0.15 and a protein stability index under setting [2] of 2.42 ± 0.34.

On to EPPPVKQELPPYNGFGLVEDSAQN [EFHC1], for which the protein stability index is, setting by setting: under setting [1], 5.15 ± 0.059; under setting [2], 5.15 ± 0.066.

For SELIVHIFSFLPAPDRLRASASCS [FBXO33], the protein stability index reads like this: under setting [1], 2.76 ± 0.14; under setting [2], 1.94 ± 0.35.

With VAERGTTQGCHPAWEPRSESQASR [ZNF8], the protein stability index was 4.48 ± 0.22 under setting [1] and 4.6 ± 0.2 under setting [2].

Turning to AVTSLSSQIQYMNTVVSTYVTTNV [TMEM106C], the protein stability index was found to be 2.58 ± 0.67 under setting [1] and 2.51 ± 0.39 under setting [2].

Take LVAHQRYHTGKTPFVCPECGQPCS [ZNF649]: the protein stability index reads like this: under setting [1], 3.62 ± 0.45; under setting [2], 4.03 ± 0.51.

Turning to INLEGKTFYSKKDRPLCKSHAFSH [PDLIM7], the protein stability index is, setting by setting: under setting [1], 2.55 ± 0.077; under setting [2], 2.71 ± 0.33.

As to LSGTRESLAQGPDAATTDELSSLG [TBC1D10A], the protein stability index is, setting by setting: under setting [1], 5.23 ± 0.34; under setting [2], 4.9 ± 0.24.

Take NWGNGKRPNLETYYERVLKRKTFN [GDAP1]: the protein stability index reads like this: under setting [1], 2.57 ± 0.12; under setting [2], 2.79 ± 0.52.

Regarding RKLLESEECRMSGEFPSPVSISII [KRT71], the protein stability index reads like this: under setting [1], 2.42 ± 0.42; under setting [2], 2.19 ± 0.19.

With FLPGGDMMTLLMKKDTLTEEETQF [STK38L], the protein stability index is, setting by setting: under setting [1], 2.89 ± 0.6; under setting [2], 3.44 ± 0.51.

As for TIEELQQKILCSKSENARLVVQID [KRT33B], the protein stability index reads like this: under setting [1], 3.38 ± 0.19; under setting [2], 3.28 ± 0.53.

For PPSSGNGPAPPPLPPALVPAGGLA [WAS], the protein stability index came out at 4.66 ± 0.47 under setting [1] and 4.67 ± 0.29 under setting [2].

For SDSMHIEDVEAVQKLQDVLHEALQ [ESRRG], the protein stability index is, setting by setting: under setting [1], 3.42 ± 0.29; under setting [2], 3.54 ± 0.16.

Take KHYRLQFYMFAWTHVTLLITVTQS [CDS1]: the protein stability index is, setting by setting: under setting [1], 2.93 ± 0.18; under setting [2], 3.16 ± 0.16.

Regarding NLDKMADNLLAAADKYALERLKVM [SPOPL], the protein stability index by setting is: under setting [1], 3.1 ± 0.44; under setting [2], 3.04 ± 0.42.

Consider DEPCAISGKWTFQRDSKRWSRLEE [DLC1], for which the protein stability index runs as follows: under setting [1], 3.99 ± 0.14; under setting [2], 3.91 ± 0.33.

Take QVAFGSLYRDDVLIKPSRVVAILA [GMCL1]: the protein stability index was found to be 2.38 ± 0.62 under setting [1] and 2.46 ± 0.48 under setting [2].

In the case of YMVRRYFNKPSRVPAPEAFRDPIW [MYORG], the protein stability index turned out to be 2.27 ± 0.25 under setting [1] and 2.12 ± 0.39 under setting [2].

For the sequence QKAPMTTVRGLHCMCTVGERLYVI [KLHL13], the protein stability index by setting is: under setting [1], 3.21 ± 0.61; under setting [2], 2.75 ± 0.52.

VHTGCHKKLGPEARRPRTRWGKN yielded a protein stability index (treatment: DMSO, c terminus: native) of 2.8 ± 0.5 and a protein stability index (treatment: MLN4924 1 uM, 8 h, c terminus: native) of 3.08 ± 0.69.

Take VFLVDICLLTYGMTSSSAYYYTKV [PKD2L1]: the protein stability index worked out at 2.98 ± 0.2 under setting [1] and 2.84 ± 0.58 under setting [2].

On to TLKQQHQQAVEQIAKAEETHSSLS [CCDC89], for which the protein stability index runs as follows: under setting [1], 5.07 ± 0.21; under setting [2], 5.09 ± 0.14.

KAEECDTITLNCPRNSDMKNQGEE [EDARADD]: the protein stability index is, setting by setting: under setting [1], 5.62 ± 0.32; under setting [2], 5.51 ± 0.31.

For the sequence GASSCDGCKGFFRRSVRKNHMYSC [HNF4A], the protein stability index runs as follows: under setting [1], 2.36 ± 0.22; under setting [2], 2.62 ± 0.26.

As for MHPKETTRQLSLAVKDGLIVETLT [ZMYND11], the protein stability index is, setting by setting: under setting [1], 3.27 ± 0.28; under setting [2], 3.36 ± 0.24.

FSVLMEKLCKKGLAATTSMAYAKL [FANCE]: the protein stability index was 3.19 ± 0.73 under setting [1] and 2.75 ± 0.56 under setting [2].

As to KATFMYEQFPELMNMLWSRMLKDN [CLINT1], the protein stability index by setting is: under setting [1], 2.28 ± 1.1; under setting [2], 2.37 ± 0.4.

As for KYQANITETQRLGLAMALEPNTTF [FANCE], the protein stability index is, setting by setting: under setting [1], 3.36 ± 0.17; under setting [2], 3.4 ± 0.15.

As to NMSLTALREKLLEAEQSLRNLEDI [TEKT4], the protein stability index is, setting by setting: under setting [1], 3.29 ± 0.47; under setting [2], 3.43 ± 0.46.

Consider SSVCVQGRCIHAGCDRIIGSKKKF [ADAMTS4], for which the protein stability index is 3.57 ± 0.26 under setting [1] and 3.22 ± 0.38 under setting [2].

On to HGAHKAEKKLFECLTCGKSFRQGM [ZNF263], for which the protein stability index reads like this: under setting [1], 2.67 ± 0.27; under setting [2], 2.78 ± 0.25.

For SRFRKAYKPEQPLVRLRGGAYIGE [LOXL2], the protein stability index is, setting by setting: under setting [1], 3.16 ± 0.26; under setting [2], 2.98 ± 0.39.

Take LSQVELQAAPGALPVSSPEPPPAL [TRIM55]: the protein stability index under setting [1] was determined as 4.79 ± 0.14 and the protein stability index under setting [2] was 4.69 ± 0.21.

For RAQYDELARKNREELDKYWSQQIE [KRT18], the protein stability index by setting is: under setting [1], 3.43 ± 0.27; under setting [2], 3.97 ± 0.85.

For RLNYDRKELEKRREESQHEIKDVL [PPFIA4], the protein stability index reads like this: under setting [1], 3.65 ± 0.42; under setting [2], 4.76 ± 0.3.

With GYRVSAALEEADKMFLRTREPALD [EID1], the protein stability index was 3.9 ± 0.27 under setting [1] and 3.89 ± 0.3 under setting [2].

In the case of LAHLAPLFDNPKLDKELRAMLREK [INTS3], the protein stability index stood at 2.6 ± 0.41 under setting [1] and 2.65 ± 0.5 under setting [2].

For MDEKVFTKELDQWIEQLNECKQLS [PPP2CA], the protein stability index worked out at 4.15 ± 0.17 under setting [1] and 4.15 ± 0.16 under setting [2].

For the sequence VVPSYIPLVKKHCDDSFTPQEKLW [CPOX], the protein stability index reads like this: under setting [1], 2.93 ± 0.15; under setting [2], 2.98 ± 0.35.

Consider ESCEEKNQLILTASADRTVIVWDG [WDR41], for which the protein stability index is 4.01 ± 0.085 under setting [1] and 3.79 ± 0.1 under setting [2].

As to MAAAVAAAPGALGSLHAGGARLVA [AUH], the protein stability index runs as follows: under setting [1], 2.8 ± 0.58; under setting [2], 3.12 ± 0.39.

For the sequence FPGVVARPIGEFRSNADYQYQLLR [CNOT7], the protein stability index is 3.05 ± 0.3 under setting [1] and 2.97 ± 0.2 under setting [2].
